Assay results from patent publication US20140072613A1, “Compositions and Methods for Treating Cutaneous Scarring” (priority 2012, published 2014).

Columns and labels:
Test in all cases: biochemical
Format in all cases: biochemical
266 human kinases [1] = biological target: 266 human kinases (Homo sapiens, UniProt Q96SB4); conditions: SRPK1(h); 100 μM
Summary of the method: (§1)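 Radiometric filter-binding format: a positively charged substrate takes up radiolabelled phosphate from ATP unless the kinase is inhibited, then is captured on a negatively charged filter membrane. Counts from scintillation are expressed relative to a 100% activity control.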

266 human kinases [2] = biological target: 266 human kinases (Homo sapiens, UniProt Q15375); conditions: EphA7(h); 100 μM
Summary of the method: as §1

266 human kinases [3] = biological target: 266 human kinases (Homo sapiens, UniProt Q92630); conditions: DYRK2(h); 100 μM
Summary of the method: as §1

266 human kinases [4] = biological target: 266 human kinases (Homo sapiens, UniProt Q15303); conditions: ErbB4(h); 100 μM
Summary of the method: as §1

266 human kinases [5] = biological target: 266 human kinases (Homo sapiens, UniProt O15530); conditions: PDK1(h); 100 μM
Summary of the method: as §1

266 human kinases [6] = biological target: 266 human kinases (Homo sapiens, UniProt P30530); conditions: Axl(h); 100 μM
Summary of the method: as §1

266 human kinases [7] = biological target: 266 human kinases (Homo sapiens, UniProt P24723); conditions: PKGη(h); 100 μM
Summary of the method: as §1

266 human kinases [8] = biological target: 266 human kinases (Homo sapiens, UniProt Q9BYT3); conditions: STK33(h); 100 μM
Summary of the method: as §1

266 human kinases [9] = biological target: T1, 266 human kinases (Homo sapiens, UniProt P42681); conditions: Txk(h); 100 μM
T1 sequence (P42681 1-527): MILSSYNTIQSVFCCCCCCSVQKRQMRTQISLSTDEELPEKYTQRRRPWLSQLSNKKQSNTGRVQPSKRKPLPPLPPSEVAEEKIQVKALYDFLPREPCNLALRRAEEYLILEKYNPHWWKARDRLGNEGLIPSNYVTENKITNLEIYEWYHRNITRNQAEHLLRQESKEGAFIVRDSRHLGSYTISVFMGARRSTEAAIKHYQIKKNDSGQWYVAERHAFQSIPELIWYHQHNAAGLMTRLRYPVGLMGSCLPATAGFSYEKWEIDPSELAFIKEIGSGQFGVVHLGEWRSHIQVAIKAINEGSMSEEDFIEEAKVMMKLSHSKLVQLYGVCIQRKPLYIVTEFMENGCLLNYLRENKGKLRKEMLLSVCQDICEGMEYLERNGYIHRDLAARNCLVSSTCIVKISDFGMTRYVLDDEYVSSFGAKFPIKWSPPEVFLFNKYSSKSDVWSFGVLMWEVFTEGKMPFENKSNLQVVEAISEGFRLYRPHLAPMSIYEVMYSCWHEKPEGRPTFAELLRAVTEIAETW
Summary of the method: as §1

266 human kinases [10] = biological target: 266 human kinases (Homo sapiens, UniProt Q9HC98); conditions: NEK6(h); 100 μM
Summary of the method: as §1

266 human kinases [11] = biological target: T2, 266 human kinases (Homo sapiens, UniProt Q12866); conditions: Mer(h); 100 μM
T2 sequence (Q12866 21-999): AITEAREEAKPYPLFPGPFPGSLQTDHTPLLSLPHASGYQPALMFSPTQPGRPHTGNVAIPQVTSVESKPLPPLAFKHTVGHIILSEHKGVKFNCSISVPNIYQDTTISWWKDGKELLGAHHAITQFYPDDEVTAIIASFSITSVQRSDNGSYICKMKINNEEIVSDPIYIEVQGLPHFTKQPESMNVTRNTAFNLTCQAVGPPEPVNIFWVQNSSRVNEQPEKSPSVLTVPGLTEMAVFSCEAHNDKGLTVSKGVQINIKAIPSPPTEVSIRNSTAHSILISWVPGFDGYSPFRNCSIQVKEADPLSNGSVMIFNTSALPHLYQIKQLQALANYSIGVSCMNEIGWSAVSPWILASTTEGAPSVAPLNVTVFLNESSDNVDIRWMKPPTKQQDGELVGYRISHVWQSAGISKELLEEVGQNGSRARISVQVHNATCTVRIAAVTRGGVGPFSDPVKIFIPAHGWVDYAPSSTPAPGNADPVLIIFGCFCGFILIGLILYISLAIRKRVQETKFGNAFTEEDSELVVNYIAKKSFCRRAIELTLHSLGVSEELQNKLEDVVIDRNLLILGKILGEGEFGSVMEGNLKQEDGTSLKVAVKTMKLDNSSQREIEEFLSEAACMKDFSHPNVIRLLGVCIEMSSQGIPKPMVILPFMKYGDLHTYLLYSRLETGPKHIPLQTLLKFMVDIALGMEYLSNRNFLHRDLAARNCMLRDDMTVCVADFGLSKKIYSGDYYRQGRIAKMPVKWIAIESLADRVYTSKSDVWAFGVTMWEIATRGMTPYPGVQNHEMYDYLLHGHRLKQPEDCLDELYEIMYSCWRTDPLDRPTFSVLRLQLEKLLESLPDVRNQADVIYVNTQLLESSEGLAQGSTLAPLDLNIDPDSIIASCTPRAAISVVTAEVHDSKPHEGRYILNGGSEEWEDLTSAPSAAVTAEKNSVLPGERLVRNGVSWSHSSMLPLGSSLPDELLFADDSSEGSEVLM
Summary of the method: as §1

266 human kinases (Homo sapiens, UniProt Q9HC98), sequence (Q9HC98 whole entry): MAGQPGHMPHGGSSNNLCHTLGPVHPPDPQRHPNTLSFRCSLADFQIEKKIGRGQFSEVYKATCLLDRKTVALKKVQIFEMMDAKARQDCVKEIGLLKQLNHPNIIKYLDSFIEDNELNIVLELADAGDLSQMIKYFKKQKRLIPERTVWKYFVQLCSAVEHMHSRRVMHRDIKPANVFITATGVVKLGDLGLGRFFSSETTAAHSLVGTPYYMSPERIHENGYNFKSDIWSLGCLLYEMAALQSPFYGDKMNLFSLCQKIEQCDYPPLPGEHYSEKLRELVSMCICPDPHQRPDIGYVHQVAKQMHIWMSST
266 human kinases (Homo sapiens, UniProt Q9BYT3), sequence (Q9BYT3 whole entry): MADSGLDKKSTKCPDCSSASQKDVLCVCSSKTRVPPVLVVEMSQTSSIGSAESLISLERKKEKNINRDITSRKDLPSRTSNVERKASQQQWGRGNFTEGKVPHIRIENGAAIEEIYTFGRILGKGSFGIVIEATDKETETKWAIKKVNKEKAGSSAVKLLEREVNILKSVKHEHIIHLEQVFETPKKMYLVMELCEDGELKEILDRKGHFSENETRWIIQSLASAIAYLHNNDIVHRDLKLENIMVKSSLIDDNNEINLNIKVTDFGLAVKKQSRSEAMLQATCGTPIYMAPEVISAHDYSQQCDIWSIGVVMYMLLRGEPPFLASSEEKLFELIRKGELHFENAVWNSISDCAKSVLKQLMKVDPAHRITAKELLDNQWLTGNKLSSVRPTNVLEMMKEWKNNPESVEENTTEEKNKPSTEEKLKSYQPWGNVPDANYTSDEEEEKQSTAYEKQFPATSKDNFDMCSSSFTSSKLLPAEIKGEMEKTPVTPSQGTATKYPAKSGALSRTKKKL
266 human kinases (Homo sapiens, UniProt O15530), sequence (O15530 whole entry): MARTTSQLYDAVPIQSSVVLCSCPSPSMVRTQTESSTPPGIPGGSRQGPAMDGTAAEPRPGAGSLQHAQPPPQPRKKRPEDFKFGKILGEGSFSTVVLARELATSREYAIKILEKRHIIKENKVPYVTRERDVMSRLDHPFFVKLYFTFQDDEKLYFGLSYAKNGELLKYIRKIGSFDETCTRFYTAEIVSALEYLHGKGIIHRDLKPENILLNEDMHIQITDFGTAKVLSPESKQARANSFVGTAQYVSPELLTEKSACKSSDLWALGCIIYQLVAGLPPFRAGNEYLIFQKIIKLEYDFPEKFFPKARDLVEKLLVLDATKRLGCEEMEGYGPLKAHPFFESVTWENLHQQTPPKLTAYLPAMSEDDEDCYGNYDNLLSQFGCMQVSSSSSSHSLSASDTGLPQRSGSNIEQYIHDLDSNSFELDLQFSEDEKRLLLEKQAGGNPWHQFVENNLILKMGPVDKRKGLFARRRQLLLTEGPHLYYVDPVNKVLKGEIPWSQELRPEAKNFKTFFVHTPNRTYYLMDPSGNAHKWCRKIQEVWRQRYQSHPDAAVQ
266 human kinases (Homo sapiens, UniProt Q15375), sequence (Q15375 28-998): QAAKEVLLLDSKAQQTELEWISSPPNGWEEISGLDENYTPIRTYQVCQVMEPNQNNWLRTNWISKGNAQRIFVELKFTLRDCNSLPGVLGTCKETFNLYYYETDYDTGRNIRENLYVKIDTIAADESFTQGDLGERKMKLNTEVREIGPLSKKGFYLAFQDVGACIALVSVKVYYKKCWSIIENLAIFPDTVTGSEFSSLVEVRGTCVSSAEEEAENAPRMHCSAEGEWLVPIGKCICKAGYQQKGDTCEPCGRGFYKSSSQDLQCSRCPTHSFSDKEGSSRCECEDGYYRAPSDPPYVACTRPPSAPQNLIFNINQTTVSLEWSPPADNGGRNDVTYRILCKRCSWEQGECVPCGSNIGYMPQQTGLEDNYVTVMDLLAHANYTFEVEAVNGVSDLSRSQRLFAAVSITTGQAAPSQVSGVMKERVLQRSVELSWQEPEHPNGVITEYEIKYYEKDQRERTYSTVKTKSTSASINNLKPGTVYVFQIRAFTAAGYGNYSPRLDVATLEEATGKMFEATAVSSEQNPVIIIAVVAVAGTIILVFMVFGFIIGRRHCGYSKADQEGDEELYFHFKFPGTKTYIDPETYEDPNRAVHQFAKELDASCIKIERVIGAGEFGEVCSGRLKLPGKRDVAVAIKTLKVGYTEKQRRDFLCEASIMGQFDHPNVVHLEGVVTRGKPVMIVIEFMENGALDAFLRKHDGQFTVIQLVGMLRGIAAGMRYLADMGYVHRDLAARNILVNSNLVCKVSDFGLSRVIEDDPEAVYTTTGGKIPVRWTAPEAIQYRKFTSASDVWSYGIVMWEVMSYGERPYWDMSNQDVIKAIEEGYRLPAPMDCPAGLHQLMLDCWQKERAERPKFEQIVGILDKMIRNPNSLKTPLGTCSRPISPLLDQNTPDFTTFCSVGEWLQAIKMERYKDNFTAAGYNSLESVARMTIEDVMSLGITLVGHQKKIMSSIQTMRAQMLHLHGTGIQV
266 human kinases (Homo sapiens, UniProt Q92630), sequence (Q92630 whole entry): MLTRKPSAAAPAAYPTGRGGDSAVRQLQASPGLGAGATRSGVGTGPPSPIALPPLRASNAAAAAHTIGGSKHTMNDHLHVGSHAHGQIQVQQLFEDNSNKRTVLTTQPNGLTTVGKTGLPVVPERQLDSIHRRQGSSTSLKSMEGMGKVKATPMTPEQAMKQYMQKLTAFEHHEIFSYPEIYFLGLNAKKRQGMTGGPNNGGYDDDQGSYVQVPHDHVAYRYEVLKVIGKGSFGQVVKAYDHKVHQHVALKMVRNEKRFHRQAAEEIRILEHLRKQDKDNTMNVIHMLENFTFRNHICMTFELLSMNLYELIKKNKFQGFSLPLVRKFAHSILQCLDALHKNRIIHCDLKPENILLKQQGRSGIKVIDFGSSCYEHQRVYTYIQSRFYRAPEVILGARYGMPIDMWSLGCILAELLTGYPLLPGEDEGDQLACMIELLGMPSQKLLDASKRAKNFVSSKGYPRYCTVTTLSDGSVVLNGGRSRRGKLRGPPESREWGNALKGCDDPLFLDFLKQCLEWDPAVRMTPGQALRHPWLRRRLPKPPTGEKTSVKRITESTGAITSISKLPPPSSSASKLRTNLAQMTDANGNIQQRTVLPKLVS
266 human kinases (Homo sapiens, UniProt Q96SB4), sequence (Q96SB4 whole entry): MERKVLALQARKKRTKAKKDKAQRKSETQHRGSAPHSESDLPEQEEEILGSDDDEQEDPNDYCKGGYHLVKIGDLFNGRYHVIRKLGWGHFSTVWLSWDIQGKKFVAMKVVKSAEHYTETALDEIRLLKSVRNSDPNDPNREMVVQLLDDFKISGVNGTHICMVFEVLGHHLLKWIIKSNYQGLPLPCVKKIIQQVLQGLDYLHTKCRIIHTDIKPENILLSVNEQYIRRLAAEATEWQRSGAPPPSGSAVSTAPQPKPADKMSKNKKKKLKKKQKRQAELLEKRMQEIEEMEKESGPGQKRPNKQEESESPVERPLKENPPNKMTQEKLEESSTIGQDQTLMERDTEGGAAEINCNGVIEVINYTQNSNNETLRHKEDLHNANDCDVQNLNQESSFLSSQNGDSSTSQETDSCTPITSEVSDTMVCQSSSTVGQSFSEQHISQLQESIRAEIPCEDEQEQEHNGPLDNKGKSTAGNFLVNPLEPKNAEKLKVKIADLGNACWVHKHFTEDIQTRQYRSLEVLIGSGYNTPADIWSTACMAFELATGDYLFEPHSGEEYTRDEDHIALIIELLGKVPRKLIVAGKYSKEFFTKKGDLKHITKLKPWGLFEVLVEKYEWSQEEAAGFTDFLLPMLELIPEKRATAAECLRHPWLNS
266 human kinases (Homo sapiens, UniProt P24723), sequence (P24723 whole entry): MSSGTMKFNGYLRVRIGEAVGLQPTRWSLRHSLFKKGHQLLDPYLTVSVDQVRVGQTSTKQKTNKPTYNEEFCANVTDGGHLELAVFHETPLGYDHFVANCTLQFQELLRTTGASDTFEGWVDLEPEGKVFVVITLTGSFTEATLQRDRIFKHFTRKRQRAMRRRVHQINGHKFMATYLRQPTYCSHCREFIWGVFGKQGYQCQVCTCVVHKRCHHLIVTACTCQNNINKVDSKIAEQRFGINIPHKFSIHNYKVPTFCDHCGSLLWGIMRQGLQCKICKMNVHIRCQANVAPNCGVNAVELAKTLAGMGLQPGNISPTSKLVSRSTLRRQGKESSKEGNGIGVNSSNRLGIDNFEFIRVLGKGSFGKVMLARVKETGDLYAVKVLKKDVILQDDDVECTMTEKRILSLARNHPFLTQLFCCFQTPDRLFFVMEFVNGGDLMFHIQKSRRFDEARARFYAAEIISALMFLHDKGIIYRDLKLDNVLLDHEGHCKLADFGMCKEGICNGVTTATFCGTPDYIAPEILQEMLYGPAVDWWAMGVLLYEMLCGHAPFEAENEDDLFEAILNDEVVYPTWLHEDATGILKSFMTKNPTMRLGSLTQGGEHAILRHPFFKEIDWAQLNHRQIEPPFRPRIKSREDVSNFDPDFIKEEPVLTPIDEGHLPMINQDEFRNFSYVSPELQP

Row | Sequence | % activity (266 human kinases [1]) | % activity (266 human kinases [2]) | % activity (266 human kinases [3]) | % activity (266 human kinases [4]) | % activity (266 human kinases [5]) | % activity (266 human kinases [6]) | % activity (266 human kinases [7]) | % activity (266 human kinases [8]) | % activity (266 human kinases [9]) | % activity (266 human kinases [10]) | % activity (266 human kinases [11])
1 | HRRIKAWLKKIKALARQLGVAA (mammal) [MMI-0500] | 80% | 189% | 127% | 2% | 178% | 12% | 45% | 16% | 10% | 49% | 17%
2 | YARAAARQARAKALNRQLGVA (mammal) [MMI-0200] | 93% | 220% | 142% | 82% | 143% | 99% | 101% | 98% | 98% | 98% | 90%
